Target: Cysless ATL1_(cyto)-K400C (human) (UniProt Q8WXF7)
Test: single-molecule photobleaching step counting (TIRF); LD655-labelled, biotinylated ATL1cyto-K mixed at ~2 μM with 1 mM GTPγS or GDP/AlF4-, diluted and immobilised (~0.3 nM) in a streptavidin-coated microfluidic chamber

Cysless ATL1_(cyto)-K400C (from UniProt Q8WXF7 1-447) (domain or fragment)
stoichiometry N: 2
